# Measured values taken from patent US20160145322A1 (CRUCELL HOLLAND B V, published 2016).
# B1: CB030.1 (antibody, V domains shown)
# VH: QVQLVQSGAEMKRPGSSVKVSCKASGGTFSTFAINWVRQAPGQGFEWMGGVIPGFDSANYAQKFQGRLTMSADESTSTVYMELSSLRSDDTAVYYCAGNSGYCSGDSCAPNWGPGTLVTVSS
# VL: DIVMTQSPLSLPVTPGEPASISCRSSQSLVHSNGYSYLDWYLQKPGQSPQLLIYLGSNRPSGVPDRFSGSGSGTDFTLKISRVEAEDVGVYFCMQNLQTPTFGGGTKVEIK
# notes: Tested as human IgG from the pCP9-kappa vector
# What was measured:
# [1] = target: T1, G protein of RSV A/Long (ATCC Cat. No. VR-26), on virus (Respiratory syncytial virus A/Long, UniProt P20895 1-298); assay: cell-based or functional assay
# T1 sequence (looked up): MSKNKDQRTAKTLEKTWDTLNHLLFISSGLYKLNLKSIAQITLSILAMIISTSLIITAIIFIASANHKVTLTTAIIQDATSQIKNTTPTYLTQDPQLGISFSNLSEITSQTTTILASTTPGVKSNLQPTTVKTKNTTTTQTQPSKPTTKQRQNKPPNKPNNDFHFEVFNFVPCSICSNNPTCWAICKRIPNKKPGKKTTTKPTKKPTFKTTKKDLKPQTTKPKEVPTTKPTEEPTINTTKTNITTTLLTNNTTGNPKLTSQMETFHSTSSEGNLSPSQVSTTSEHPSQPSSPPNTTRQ
# [2] = target: G protein of RSV B/18537 (ATCC Cat. No. VR-1580), on virus (Respiratory syncytial virus B/18537); assay: cell-based or functional assay
# [3] = target: T2, Recombinant RSV attachment protein (G protein) corresponding to RSV B/B1 (Respiratory syncytial virus B/B1, UniProt O36633 65-299); assay: ELISA, coated recombinant protein
# T2 construct: also called RSV Gb; Gb
# T2 sequence: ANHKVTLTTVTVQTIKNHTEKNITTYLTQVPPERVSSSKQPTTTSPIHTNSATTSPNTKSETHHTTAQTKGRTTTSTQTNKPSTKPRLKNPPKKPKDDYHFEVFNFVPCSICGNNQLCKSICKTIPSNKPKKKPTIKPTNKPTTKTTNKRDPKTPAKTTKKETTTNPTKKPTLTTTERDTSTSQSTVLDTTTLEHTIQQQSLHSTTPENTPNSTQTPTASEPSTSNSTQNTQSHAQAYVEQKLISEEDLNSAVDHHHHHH
# [4] = target: T3, Sym-1705 (RSV-G type A central region peptide 145-201) (Respiratory syncytial virus type A, not fully specified; N-terminal biotin); assay: Octet Red384, streptavidin tips with biotinylated peptide
# T3 construct: Synthetic peptide
# T3 peptide: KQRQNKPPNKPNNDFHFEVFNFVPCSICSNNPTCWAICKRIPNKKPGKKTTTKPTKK
# [5] = target: T4, Sym-1706 (RSV G central conserved domain (CCD) peptide, type A 145-184) (Respiratory syncytial virus type A, N-terminal biotin); assay: as above
# T4 construct: Synthetic peptide, C-terminally truncated against Sym-1705
# T4 peptide: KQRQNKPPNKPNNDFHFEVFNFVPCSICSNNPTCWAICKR
# [6] = target: T5, Sym-1788 (RSV-G type B central region peptide 145-201) (Respiratory syncytial virus type B, N-terminal biotin); assay: as above
# T5 construct: Synthetic peptide
# T5 peptide: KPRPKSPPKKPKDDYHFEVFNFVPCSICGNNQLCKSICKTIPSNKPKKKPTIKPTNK
# [7] = target: T6, Sym-1789 (RSV-G type B central region peptide 145-184) (Respiratory syncytial virus type B, N-terminal biotin); assay: as above
# T6 construct: Synthetic peptide, C-terminally truncated against Sym-1788
# T6 peptide: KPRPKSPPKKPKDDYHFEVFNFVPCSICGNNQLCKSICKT
# [8] = target: T3, Sym-1705 (RSV-G type A central region …); assay: ELISA, antibody titrated on biotinylated peptide on avidin plate
# [9] = target: T4, Sym-1706 (RSV G central conserved …); assay: as above
# [10] = target: T5, Sym-1788 (RSV-G type B central region …); assay: as above
# [11] = target: T6, Sym-1789 (RSV-G type B central region …); assay: as above
binder,measurement,setting,value
B1,"Neutralization IC50, plaque reduction assay, RSV A/Long",[1],0.037 µg/mL
same,"Neutralization IC50 (ng/mL), plaque reduction assay, RSV B/18537",[2],18.3 ng/mL
same,binding result,[3],binds
same,Binding (Octet) [RU],[4],0.47 RU
same,Binding (Octet) [RU],[5],0.53 RU
same,Binding (Octet) [RU],[6],0.73 RU
same,Binding (Octet) [RU],[7],1.36 RU
same,IC50,[8],~0.02 µg/mL
same,IC50,[9],~0.02 µg/mL
same,IC50,[10],~0.02 µg/mL
same,IC50,[11],~0.02 µg/mL
